These results are taken from US20120316071A1 (published 2012).

Assay [1] deals with T1, rHuman EGF R/Fc Chimera, CF (R&D Systems Cat#344-ER) (human, UniProt P00533 25-645).
T1 construct: Bought recombinant Fc chimera; also called epidermal growth factor receptor; Fc part of the bought chimera not given
Nature of the assay: MSD Multispot ECL, antigen spotted on plate, Fab in solution; blank spot of the row 240.

The target of assay [2] is T2, rHuman HGF R/c-MET/Fc Chimera, CF (R&D Systems Cat#358-MT/CF) (human, UniProt P08581 25-932).
T2 construct: Bought recombinant Fc chimera; also called HGF R/Fc; hepatocyte growth factor receptor; Fc part of the bought chimera not given
The assay is described as above.

In assay [3] the target is T3, rHuman Notch-1/Fc Chimera, CF (R&D Systems Cat#3647-TK) (human, UniProt P46531 19-526).
T3 construct: Bought recombinant Fc chimera; Fc part of the bought chimera not given
The assay is described as above.

The target in assay [4] is T4, rHuman P-Cadherin/Fc Chimera, CF (R&D Systems Cat#861-PC) (human, UniProt P22223 108-654).
T4 construct: Bought recombinant Fc chimera; Fc part of the bought chimera not given
The description is as above.

Assay [5] deals with T5, rHuman Erythropoietin R/Fc Chimera, CF (R&D Systems Cat#963-ER) (human, UniProt P19235 25-250).
T5 construct: Bought recombinant Fc chimera; also called EPO R; EPO R/Fc; Fc part of the bought chimera not given
T5 sequence (looked up): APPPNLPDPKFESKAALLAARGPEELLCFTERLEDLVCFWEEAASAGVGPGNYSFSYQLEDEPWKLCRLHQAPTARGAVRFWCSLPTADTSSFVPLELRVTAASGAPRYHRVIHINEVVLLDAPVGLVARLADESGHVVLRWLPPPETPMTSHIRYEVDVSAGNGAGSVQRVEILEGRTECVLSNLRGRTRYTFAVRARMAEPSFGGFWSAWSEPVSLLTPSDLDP
The description is as above.

Assay [6] deals with T6, Recombinant Human DLL4 (R&D Systems Cat#1506-D4/CF) (human, UniProt Q9NR61 27-524).
T6 construct: Bought recombinant protein; also called delta-like protein 4; Delta-like 4
Described as above.

For assay [7], the target named is T1, rHuman EGF R/Fc Chimera, CF (R&D …). Put plainly: MSD Multispot ECL, antigen spotted on plate, Fab in solution; blank spot of the row 424.
For assay [8], the target named is T2, rHuman HGF R/c-MET/Fc Chimera, CF (R&D …). The assay is described as above.
In assay [9] the target is T3, rHuman Notch-1/Fc Chimera, CF (R&D …). Described as above.
Assay [10] has as its target T4, rHuman P-Cadherin/Fc Chimera, CF (R&D …). The description is as above.
The target in assay [11] is T5, rHuman Erythropoietin R/Fc Chimera, CF …. Described as above.
The target in assay [12] is T6, Recombinant Human DLL4 (R&D Systems …). The assay is described as above.
The target of assay [13] is T7, Recombinant Human DLL4 (R&D Systems Cat#1506-D4/CF) (human, UniProt Q9NR61 27-524).
T7 construct: Bought recombinant protein; also called rHuman DLL4; delta-like protein 4
Nature of the assay: ECL (MSD) multispot binding assay, antigen spotted on the plate, Fab in solution; blank spot of this well 213.

The target in assay [14] is T8, rHuman P-Cadherin/Fc Chimera, CF (R&D Systems Cat#861-PC) (human, UniProt P22223 108-654).
T8 construct: Bought reagent; Fc part of the bought chimera not given
Described as above.

Assay [15] deals with T9, rHuman Erythropoietin R/Fc Chimera, CF (R&D Systems Cat#963-ER) (human, UniProt P19235 25-250).
T9 construct: Bought reagent; also called EPO R/Fc; EPO R; Fc part of the bought chimera not given
T9 sequence (looked up): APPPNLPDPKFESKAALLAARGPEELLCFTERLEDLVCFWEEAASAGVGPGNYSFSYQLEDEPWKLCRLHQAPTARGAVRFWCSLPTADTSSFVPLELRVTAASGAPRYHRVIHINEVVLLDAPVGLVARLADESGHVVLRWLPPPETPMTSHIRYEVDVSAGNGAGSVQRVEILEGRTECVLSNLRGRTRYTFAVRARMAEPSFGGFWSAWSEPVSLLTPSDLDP
The description is as above.

Assay [16] concerns the target T10, rHuman Notch-1/Fc Chimera (human, UniProt P46531 19-526).
T10 construct: R&D Systems Cat#3647-TK; not shown: Fc of the bought R&D Systems chimera
Put plainly: ECL (MSD) multispot assay, antigen spotted; blank spot of this row 223.

Assay [17] has as its target T11, rHuman P-Cadherin/Fc Chimera (human, UniProt P22223 108-654).
T11 construct: R&D Systems Cat#861-PC; not shown: Fc of the bought R&D Systems chimera
The description is as above.

Assay [18] addresses T12, rHuman EGF R/Fc Chimera (human, UniProt P00533 25-645).
T12 construct: not shown: Fc of the bought R&D Systems chimera
The assay is described as above.

Assay [19] has as its target T13, Recombinant Human DLL4 (delta-like protein 4) (human, UniProt Q9NR61 27-524).
T13 construct: Bought recombinant protein (R&D Systems Cat#1506-D4/CF); also called rHuman DLL4
Nature of the assay: ELISA, DLL4 coated on plate. On the technique in general: An ELISA detects its analyte on a solid surface through an enzyme-linked reagent.

Assay [20] has as its target T11, rHuman P-Cadherin/Fc Chimera. Nature of the assay: ECL (MSD) multispot assay, antigen spotted; blank spot of this row 236.
Assay [21] has as its target T13, Recombinant Human DLL4 (delta-like …). The description is as above.
The target of assay [22] is T12, rHuman EGF R/Fc Chimera. The description is as above.
The target of assay [23] is T13, Recombinant Human DLL4 (delta-like …). Nature of the assay: ECL (MSD) multispot binding assay; value equals DLL4 signal over blank of Table 91.
In assay [24] the target is T10, rHuman Notch-1/Fc Chimera. Put plainly: ECL (MSD) multispot assay, antigen spotted; blank spot of this row 284.
Another assay has as its target T14, rHuman CD44/Fc Chimera (human, UniProt P16070 21-220).
T14 construct: not shown: Fc of the bought R&D Systems chimera
The assay is described as above.

Assay [25] addresses T11, rHuman P-Cadherin/Fc Chimera. Described as above.
The target of assay [26] is T13, Recombinant Human DLL4 (delta-like …). The assay is described as above.
The target in a further assay is T15, rHuman ErbB2/Fc Chimera (human, UniProt P04626 23-652).
T15 construct: not shown: Fc of the bought R&D Systems chimera
The description is as above.

The target in assay [27] is T12, rHuman EGF R/Fc Chimera. The description is as above.

T2 sequence (P08581 25-932, change not shown): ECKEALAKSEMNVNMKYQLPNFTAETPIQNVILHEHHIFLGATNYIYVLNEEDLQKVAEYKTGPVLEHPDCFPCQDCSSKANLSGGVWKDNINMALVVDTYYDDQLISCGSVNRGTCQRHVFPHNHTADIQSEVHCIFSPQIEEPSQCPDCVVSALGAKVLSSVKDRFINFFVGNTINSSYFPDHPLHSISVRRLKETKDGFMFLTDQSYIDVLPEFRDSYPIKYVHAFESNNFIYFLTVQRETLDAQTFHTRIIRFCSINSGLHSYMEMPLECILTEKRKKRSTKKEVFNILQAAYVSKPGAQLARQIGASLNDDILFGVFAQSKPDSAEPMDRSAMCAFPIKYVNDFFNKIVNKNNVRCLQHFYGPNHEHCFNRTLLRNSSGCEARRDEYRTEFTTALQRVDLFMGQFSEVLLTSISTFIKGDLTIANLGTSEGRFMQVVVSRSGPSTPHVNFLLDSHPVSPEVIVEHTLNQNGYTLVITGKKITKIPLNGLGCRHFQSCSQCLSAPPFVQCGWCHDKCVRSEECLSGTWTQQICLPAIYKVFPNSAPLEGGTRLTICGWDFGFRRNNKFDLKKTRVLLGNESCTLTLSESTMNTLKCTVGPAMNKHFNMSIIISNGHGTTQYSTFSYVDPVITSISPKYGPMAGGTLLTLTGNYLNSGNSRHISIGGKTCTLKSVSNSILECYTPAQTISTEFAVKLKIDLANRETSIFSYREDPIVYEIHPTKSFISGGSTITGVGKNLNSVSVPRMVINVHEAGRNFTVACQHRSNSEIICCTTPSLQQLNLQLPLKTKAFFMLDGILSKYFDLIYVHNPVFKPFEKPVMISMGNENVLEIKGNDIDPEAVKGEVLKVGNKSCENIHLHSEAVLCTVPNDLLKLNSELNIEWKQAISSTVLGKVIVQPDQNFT

B1: Fab VH5-51_IGHD5-18*01>3_IGHJ4*01 G100K/G104T (KT) & V3-4_IGLJ1*01 (Fab, V domains shown)
VH: EVQLVQSGAEVKKPGESLKISCKGSGYSFTSYWIGWVRQMPGKGLEWMGIIYPGDSDTRYSPSFQGQVTISADKSISTAYLQWSSLKASDTAMYYCARRKYSYTYDYFDYWGQGTLVTVSS
VL: QTVVTQEPSFSVSPGGTVTLTCGLSSGSVSTSYYPSWYQQTPGQAPRTLIYSTNTRSSGVPDRFSGSILGNKAALTITGAQADDESDYYCVLYMGSGISYVFGTGTKVTVL
notes: Fab made in E. coli; VH cloned into Plasmid A (CH1, His6 and Flag tags), lambda VL into Plasmid E (lambda CL); also called H:KT & L:wt; KT double mutant
As to B1, the ECL signal in [1] amounted to 915; in [2] it was 936; in [3] it was 507; in assay [4], 346; in [5] it was 497; in assay [6], 45100. Also, the ECL signal is 852 in assay [7]; 838 in assay [8]; 543 in assay [9]; 319 in assay [10]; 554 in assay [11]; 36400 in assay [12].

B2: Fab VH5-51_IGHD5-18*01>3_IGHJ4*01 G100K/G104T (KT) & V3-4_IGLJ1*01 (Fab, V domains shown)
VH: EVQLVQSGAEVKKPGESLKISCKGSGYSFTSYWIGWVRQMPGKGLEWMGIIYPGDSDTRYSPSFQGQVTISADKSISTAYLQWSSLKASDTAMYYCARRKYSYTYDYFDYWGQGTLVTVSS
VL: QTVVTQEPSFSVSPGGTVTLTCGLSSGSVSTSYYPSWYQQTPGQAPRTLIYSTNTRSSGVPDRFSGSILGNKAALTITGAQADDESDYYCVLYMGSGISYVFGTGTKVTVL
notes: Tested as a Fab expressed in E. coli; The heavy chain variable region was cloned into Plasmid A (CH1 constant region, His6 and Flag tags); The lambda light chain variable region was cloned into Plasmid E (lambda CL); also called H:KT & L:wt; KT double mutant
Regarding B2, the ECL signal came to 32700 in assay [13], 226 in assay [14] and 421 in assay [15].

B3: Fab VH5-51_IGHD5-18*01>3_IGHJ4*01 G100K/G104T S84L & V3-4_IGLJ1*01 (Fab, V domains shown)
VH: EVQLVQSGAEVKKPGESLKISCKGSGYSFTSYWIGWVRQMPGKGLEWMGIIYPGDSDTRYSPSFQGQVTISADKSISTAYLQWLSLKASDTAMYYCARRKYSYTYDYFDYWGQGTLVTVSS
VL: QTVVTQEPSFSVSPGGTVTLTCGLSSGSVSTSYYPSWYQQTPGQAPRTLIYSTNTRSSGVPDRFSGSILGNKAALTITGAQADDESDYYCVLYMGSGISYVFGTGTKVTVL
notes: Fab made in E. coli (heavy chain vector with CH1, His6 and Flag tags; lambda CL vector)
For the molecule B3, the figures for the ECL signal (in [16]; in assay [17]; with rHuman EGF R/Fc Chimera [18]) were 410, 320 and 864, respectively.

B4: Fab VH5-51_IGHD5-18*01>3_IGHJ4*01 G100K/G104T S84V & V3-4_IGLJ1*01 (Fab, V domains shown)
VH: EVQLVQSGAEVKKPGESLKISCKGSGYSFTSYWIGWVRQMPGKGLEWMGIIYPGDSDTRYSPSFQGQVTISADKSISTAYLQWVSLKASDTAMYYCARRKYSYTYDYFDYWGQGTLVTVSS
VL: QTVVTQEPSFSVSPGGTVTLTCGLSSGSVSTSYYPSWYQQTPGQAPRTLIYSTNTRSSGVPDRFSGSILGNKAALTITGAQADDESDYYCVLYMGSGISYVFGTGTKVTVL
notes: as for B3
With B4, in assay [19], the “ELISA (Signal-Noise)” value worked out at 0.02. For the same molecule, the ECL signal in assay [20] came out at 362; in assay [21], 8890; with rHuman EGF R/Fc Chimera [22], 805. For the same molecule, the ECL signal-to-blank ratio in assay [23] was 37.7.

B5: Fab VH5-51_IGHD5-18*01>3_IGHJ4*01 G100K/G104T D109A & V3-4_IGLJ1*01 (Fab, V domains shown)
VH: EVQLVQSGAEVKKPGESLKISCKGSGYSFTSYWIGWVRQMPGKGLEWMGIIYPGDSDTRYSPSFQGQVTISADKSISTAYLQWSSLKASDTAMYYCARRKYSYTYDYFAYWGQGTLVTVSS
VL: QTVVTQEPSFSVSPGGTVTLTCGLSSGSVSTSYYPSWYQQTPGQAPRTLIYSTNTRSSGVPDRFSGSILGNKAALTITGAQADDESDYYCVLYMGSGISYVFGTGTKVTVL
notes: as for B3
With B5, the “ELISA (Signal-Noise)” value in assay [19] stood at 0. In addition, the ECL signal in [24] came out at 443; with rHuman CD44/Fc Chimera, 538; in assay [25], 406; in assay [26], 21800; in the assay with rHuman ErbB2/Fc Chimera, 1100; in the assay with rHuman EGF R/Fc Chimera [27], 791. In addition, the ECL signal-to-blank ratio in assay [23] turned out to be 76.8.
